Experimental data as given in patent US12122830 (ABL BIO, dated 2024).

How the values were obtained:
[1] = target: T1, human ROR1 expressed on the cell surface (human, UniProt Q01973 30-937); assay: flow cytometry on HCC1187 cells (breast cancer), C2E3 IgG at 10 µg/mL, MFI of anti-ROR1 / MFI of 2nd Ab
T1 construct: whole, on cells; On JeKo-1 and Mino cells and other cancer cell lines (endogenous) and on transfected CHO and MC38 cells; also called cell surface-expressed ROR1; CHO-human ROR1
Method: (§1) For the cell lines, the binding to ROR1 was analyzed with FACS (FACSCalibur, BD Biosciences) by using the anti-ROR1 antibody of the present invention.
(§2) Specifically, after disassociating each cell line and washing in PBS, the number of cells was counted and set as 2 ×10^5 cells/200 µl PBS, and then the clone C2E3 among ROR1 monoclonal antibodies prepared in Example 3 was treated in 10 µg/mL, and it was reacted at 4° C. for 1 hour. After reaction, cells were washed in PBS, and then the FITC-labeled constant region (Fc)-specific antibody (Goat anti-human IgG FITC conjugate, Fc specific, Sigma, F9512, concentration: 2.0 mg/ml) was suspended in 2 µl/1 ×10^5 cells/200 µl PBS, and it was reacted at 4° C. for 1 hour. After reaction, cells were washed in PBS, it was analyzed using a FACSCalibur device. The negative control group was treated only with the FITC-labeled constant region (Fc)-specific antibody. To compare the expression degrees of ROR1 among the cancer cell lines, the value of the result for the peak shift in the experimental group treated with the ROR1 monoclonal antibody (C2E3) of the present invention was divided by the result for the peak shift in the control group (Mean Fluorescence Intensity Ratio MFI Ratio: MFI of anti-ROR1/MFI of 2nd Ab).

[2] = target: T1, human ROR1 expressed on the cell surface; assay: flow cytometry on H1437 cells (lung cancer), C2E3 IgG at 10 µg/mL, MFI of anti-ROR1 / MFI of 2nd Ab
Method: as §1, §2

[3] = target: T1, human ROR1 expressed on the cell surface; assay: flow cytometry on MKN-28 cells (gastric cancer), C2E3 IgG at 10 µg/mL, MFI of anti-ROR1 / MFI of 2nd Ab
Method: as §1, §2

[4] = target: T1, human ROR1 expressed on the cell surface; assay: flow cytometry on Jurkat cells (T cell leukemia), C2E3 IgG at 10 µg/mL, MFI of anti-ROR1 / MFI of 2nd Ab
Method: as §1, §2

[5] = target: T2, recombinant ROR1-His (Sino Biological, 13968-H08H) (human, UniProt Q01973 30-406); assay: BLI (Octet), ROR1-His loaded on biosensor, IgG in solution, 1:1 fitting
T2 construct: extracellular domain; Bought; also called human ROR1 antigen; not shown: His tag
Method: A 96 well black microplate (greiner bio one) in a biosensor tray case was installed, and 200 µl of 10×KB or D.W was put in 8 wells each. 8 sensors, Anti Penta His biosensors or AR2G biosensors (ForteBio, USA), were placed for 10 min for hydration. 600 µl of Analytic samples were diluted 2 folds or 3 folds to desired concentrations. It was diluted using 1×KB or 10×KB to reach a concentration of 30~0.021 nM. For antigen fixation, 1 µg/mL of a recombinant ROR1-His (Sino Biological, 13968-H08H) was diluted with 10×KB or Sodium Acetate pH5 buffer. For fixation, threshold was set to be 0.3 nmat the loading step. The experiment was performed for 3 min~10 min of association and for 20 min of dissociation. The prepared buffer was put into a new 96 well black microplate in accordance with octet program template in order. 10×KB or D.W 200 µl used as Baseline1 was put. 200 µl of the antigen ROR1-His protein (1 µg/mL) was loaded. 10×KB or D.W 200 µl used as Baseline2 was put. 200 µl of 10×KB buffer or 1×KB corresponding the diluted antibody in 30~0.021 nM, Reference blank was put into each well. The temperature of the experimental plate was fixed at 30° C. After placing all samples, the device was activated. After the experiment was finished, the result was uploaded on Octet Analysis 9.0 software, and then KD value was calculated using 1:1 fitting, and the result was described in the following Table 6. […]

[6] = target: T3, mouse ROR1 expressed on the cell surface (CHO-mouse ROR1) (mouse, UniProt Q9Z139 30-937); assay: flow cytometry on CHO cells transiently overexpressing mouse ROR1, FITC anti-human Fc detection, MFI ratio to 2nd Ab
T3 construct: whole, on cells; Temporarily transfected CHO cells
Method: For this experiment, the degree of binding of the anti-ROR1 antibody and ROR1 was measured by using FACSCalibur (BD Biosciences) device with the cell lines as follows, the cell lines artificially overexpressing the ROR1 protein by transfecting an ROR1 gene temporarily (CHO-human ROR1, CHO-human ROR2, CHO-mouse ROR1) or stably (MC38-human ROR1) (FIG. 5 and FIG. 7, respectively) or the cell lines expressing ROR1 (JeKo-1, Mino) (FIG. 6) or a cell line not expressing ROR1 (MCF7) (FIG. 6). […] JeKo-1, Mino, CHO-human ROR1, CHO-mouse ROR1 and MC38-human ROR1 are all cell lines expressing human ROR1 or mouse ROR1.
Specifically, after disassociating each cell line and washing in PBS, the number of cells was counted and set as 2×10^5 cells/200 µl PBS, and then each ROR1 monoclonal antibody in Example 3 was prepared in 10 µg/mL or as 5 fold-diluted from 10 µg/mL, and was reacted at 4° C. for 1 hour. After reaction, cells were washed in PBS and then the FITC-labeled constant region (Fc)-specific antibody (Goat anti-human IgG FITC conjugate, Fc specific, Sigma, F9512, concentration: 2.0 mg/ml) was suspended in 2 µl/1×10^5 cells/200 µl PBS, and it was reacted at 4° C. for 1 hours. The confirmation of expression degree of human ROR1, human ROR2 and mouse ROR1 that were temporarily overexpressed was analyzed by using a commercially available antibody for FACS analysis (anti-ROR1: R&D Systems, FAB2000G, anti-ROR2: R&D, FAB20641P). After reaction, cells were washed in PBS and decoded by using a FACSCalibur device. The negative control group (2nd Ab) was treated only with the FITC-labeled constant region (Fc)-specific antibody. The result for the peak shift in the experimental group treated with each ROR1 monoclonal antibody was compared to the result for the shift in the control group (Mean Fluorescence Intensity Ratio, MFI Ratio: MFI of anti-ROR1/MFI of 2nd Ab).

T1 sequence (Q01973 30-937): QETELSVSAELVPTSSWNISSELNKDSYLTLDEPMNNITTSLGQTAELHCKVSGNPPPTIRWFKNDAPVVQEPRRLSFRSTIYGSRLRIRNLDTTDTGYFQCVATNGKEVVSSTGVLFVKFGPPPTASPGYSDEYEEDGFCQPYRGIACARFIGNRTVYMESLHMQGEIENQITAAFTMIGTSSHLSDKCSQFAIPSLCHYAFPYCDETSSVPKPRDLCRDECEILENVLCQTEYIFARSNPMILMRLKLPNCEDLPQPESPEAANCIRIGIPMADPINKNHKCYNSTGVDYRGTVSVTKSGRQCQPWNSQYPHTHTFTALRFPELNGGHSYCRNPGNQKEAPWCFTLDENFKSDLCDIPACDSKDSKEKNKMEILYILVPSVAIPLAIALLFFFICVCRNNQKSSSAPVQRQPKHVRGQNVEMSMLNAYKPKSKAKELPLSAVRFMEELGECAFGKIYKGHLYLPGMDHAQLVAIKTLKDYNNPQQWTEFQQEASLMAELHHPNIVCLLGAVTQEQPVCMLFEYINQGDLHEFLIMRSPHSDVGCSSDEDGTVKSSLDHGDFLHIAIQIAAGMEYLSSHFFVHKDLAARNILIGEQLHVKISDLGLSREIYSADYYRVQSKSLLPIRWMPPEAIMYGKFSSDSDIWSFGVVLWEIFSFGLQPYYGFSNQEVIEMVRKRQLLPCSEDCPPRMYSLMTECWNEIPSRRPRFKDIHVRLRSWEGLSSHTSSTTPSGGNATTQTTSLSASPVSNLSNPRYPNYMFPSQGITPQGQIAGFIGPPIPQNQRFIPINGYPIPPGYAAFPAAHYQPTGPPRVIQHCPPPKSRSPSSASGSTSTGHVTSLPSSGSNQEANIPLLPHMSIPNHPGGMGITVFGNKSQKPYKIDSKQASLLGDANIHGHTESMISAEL
T2 sequence (Q01973 30-406): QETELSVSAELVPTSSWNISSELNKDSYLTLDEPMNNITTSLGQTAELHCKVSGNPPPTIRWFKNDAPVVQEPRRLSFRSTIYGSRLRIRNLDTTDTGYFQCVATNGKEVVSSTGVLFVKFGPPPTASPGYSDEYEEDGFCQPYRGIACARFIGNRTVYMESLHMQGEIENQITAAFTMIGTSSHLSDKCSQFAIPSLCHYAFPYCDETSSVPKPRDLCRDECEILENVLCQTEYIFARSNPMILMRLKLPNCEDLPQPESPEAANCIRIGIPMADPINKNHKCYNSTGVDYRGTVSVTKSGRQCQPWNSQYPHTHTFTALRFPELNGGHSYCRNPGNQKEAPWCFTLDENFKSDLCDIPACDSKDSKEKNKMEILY
T3 sequence (Q9Z139 30-937): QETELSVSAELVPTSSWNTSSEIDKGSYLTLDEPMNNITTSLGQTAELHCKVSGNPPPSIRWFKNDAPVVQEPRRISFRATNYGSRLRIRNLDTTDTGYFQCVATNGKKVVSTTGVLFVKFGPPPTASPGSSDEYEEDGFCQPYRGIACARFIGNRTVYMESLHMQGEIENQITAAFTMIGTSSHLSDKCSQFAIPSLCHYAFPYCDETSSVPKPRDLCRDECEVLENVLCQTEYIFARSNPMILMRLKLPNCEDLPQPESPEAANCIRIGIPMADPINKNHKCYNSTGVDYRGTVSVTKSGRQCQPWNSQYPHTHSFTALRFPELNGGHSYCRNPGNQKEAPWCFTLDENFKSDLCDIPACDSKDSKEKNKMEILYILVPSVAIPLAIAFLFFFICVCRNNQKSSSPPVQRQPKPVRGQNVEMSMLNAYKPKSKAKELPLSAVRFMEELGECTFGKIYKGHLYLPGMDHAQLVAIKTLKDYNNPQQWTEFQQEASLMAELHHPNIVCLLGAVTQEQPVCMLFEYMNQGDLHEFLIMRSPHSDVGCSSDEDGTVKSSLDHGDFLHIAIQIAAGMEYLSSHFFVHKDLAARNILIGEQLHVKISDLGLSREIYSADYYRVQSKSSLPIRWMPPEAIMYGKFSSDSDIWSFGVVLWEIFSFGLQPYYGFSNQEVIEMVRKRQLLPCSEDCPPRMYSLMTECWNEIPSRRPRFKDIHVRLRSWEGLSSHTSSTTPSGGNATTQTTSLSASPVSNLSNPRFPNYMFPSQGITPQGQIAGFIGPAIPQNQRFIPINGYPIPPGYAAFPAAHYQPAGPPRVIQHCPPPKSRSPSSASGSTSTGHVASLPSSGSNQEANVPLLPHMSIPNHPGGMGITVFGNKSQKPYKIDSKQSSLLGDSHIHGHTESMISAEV

B1: C2E3 anti-ROR1 IgG antibody (antibody, V domains shown)
VH: EVQLLESGGGLVQPGGSLRLSCAASGFTFSNYAMSWVRQAPGKGLEWVSSISHNSGSTYYADSVKGRFTISRDNSKNTLYLQMNSLRAEDTAVYYCAKFISARKSLGRSYSNGMDVWGQGTLVTVSS
VL: QSVLTQPPSASGTPGQRVTISCTGSSSNIGSNDVTWYQQLPGTAPKLLIYADSKRPSGVPDRFSGSKSGTSASLAISGLRSEDEADYYCGTWDYSLSGYVFGGGTKLTVLG
- Mean Fold Ratio [1]: 9.3
- Mean Fold Ratio [2]: 4.1
- Mean Fold Ratio [3]: 4.9
- Mean Fold Ratio [4]: 1.7
- Kd [5]: 0.424 nM
- koff [5]: 0.00231 s⁻¹
- binding result [6]: binds
